# Laboratory results taken from the DeepSol protein solubility set.
# Assay: soluble on expression in E. coli; label from the status in PepcDB or PDB records
row,Sequence,soluble on expression in E. coli
1,MGSDKIHHHHHHMNAIQCETRTYEREYNTHDHSYGQMLFALHGAMEIQTPVYDTFQLEANFGLYLPPHVNHRFRAVARNEFIVVDIPARFLGDAVTTEQHVALDETWGALCHLFRGEAYQPASSQSLRPLVDYLTSKLAKKTLPASIHYMKQHFSEPLSLETLAAIEHYHPAYYSSWFKGYTGMSPSEYLQKLRVKAAKRLLGETTWSVARISIEVGYTHPSGLVRAFTKVEGMTPSAYRNTLH,not soluble
2,QRGIINQRRERLVAADLMGAATVTASTVKYIVEKANRIASGAPATVAEGTKKPYVKYADFDVVTESLSKVAALAKFTDEMIEDYDFVASWINNNLVYDLSVVEEKQLINGDGRGSNIKGLLNREGIQTHKSAKQADWFNDLFKAKNKVSQATNLEADGIMINPVNYEALRLTKDGNGQYIAGGPFQGQYGNGNILIDPPLWGIKTVVSNAVPAGTAIVGAFRQGATVLRKGGVRVDSANTNADDFENNLVTLRAEERLGLMVPLPAAFVKVTLEETTEEL,not soluble
3,MNIVNKDSKNTFTRMCIGEAIIKLLKDTDFDKIRITSVAKCAGVSRITFYKYYESIHDALCDYLNIIIIEYLEECANNPENGSFLDYSHILFALEFFNRYKDYFLTLSRCGLHSILINSINNFMSEHFTNPKNYSEYRLYCYSGGLLNTFLKWEENGCDCDAGEIARTLEELYS,not soluble
4,MGSDKIHHHHHHMFVIWSHRTGFIMSHQLTFADSEFSSKRRQTRKEIFLSRMEQILPWQNMVEVIEPFYPKAGNGRRPYPLETMLRIHCMQHWYNLSDGAMEDALYEIASMRLFARLSLDSALPDRTTIMNFRHLLEQHQLARQLFKTINRWLAEAGVMMTQGTLVDATIIEAPSSTKNKEQQRDPEMHQTKKGNQWHFGMKAHIGVDAKSGLTHSLVTTAANEHDLNQLGNLLHGEEQFVSADAGYQGAPQREELAEVDVDWLIAERPGKVRTLKQHPRKNKTAINIEYMKASIRARVEHPFRIIKRQFGFVKARYKGLLKNDNQLAMLFTLANLFRADQMIRQWERSH,not soluble
5,MAHHHHHHMGTLEAQTQGPGSMSVMPDHWIKERALKDGMISPFVDHKEGTGVLSYGLSSYGYDARLDNKFKIFANTHSVVVDPKNFSQDSFVDREGDFCIIPPNSFMLAKTVEYFNIPRDVMVVCVGKSTYARCGIVVNVTPLEPGWSGYVTLEFSNTSPLPVKVYAFEGACQFLFFSGKERCSKSYDEAGGKYMGQSDVTLPIIS,soluble
6,MVTVREAKLEDIKDIAKVHVDSWRTTYHEIIPIDYLNSLNYKEFEDKWKSRSLKGVFVAQDEKGSVFGFASFGPIRSEQEGYDGELYAIYLLEERQRQGAGRALLAKGAEFLLQHGFSSMFVWVIEQNPSIIFYQAYSPERVAEDNFEIAGVRLKEVGLGWPDLSALKTLLNR,soluble
7,MGESFTQAVVEGPQPKPSRFQFVPVPGEFTRGRWKCRDSYHPNAETLEFEKNKSKEEETNPDKISVFFKLRQQQQEPEPEPEPPQPPPQESTIQVTSVKSTRPDTGDPGDSEVVTTDSTESIIITRKNGVTIVRKTSNSLLLPDEKYDQIRQLSIDDFENKEKKQQVPPTPMNTPPASLAVVDTSIQSTTSETTPGHSSSRKPSKEDSSPFDASSATPAPSQLETPQQQKPTTTRHFQVEPVVLSEPSTPAPVAPAPSIETLTSTSPPVTQQLAPSLSEPTFQVIQTEESKNMSMDSVKNVVDAAALSAPAPAPLSQSDRLNHVDEVEGTTPSNVMITVSSAAAALEKKEEAAFAAAGSLDSCGIPISGGGAAAQTSAPHSTPYGTPKDTHIQQQQQPVVFEEILTANGPPPQPSSPLLPALITTTTSAPTIAPASSPIINASGSSIPAASTSGISLFPSGGVTSSLTTPSTTADTHTPIDNKIEQAMELVKTHLTYAVREEVDTLRNTIAELEYQMRESQYECTYYRQNCAPDLIEQASSFVHQQMASHQRPAARRAVSTAGIFDGSSSGGGGGQASSGASASASSAHMRNLQNQIQQMKQITPITTNTCINSTSTSTTAYTSTPTASIPAATAITTTTAPPKPSPTTSESSLITGDLGAPAGAVAQKMTTTNN,not soluble
8,MQNNVVDSIIIDVLSASTHEKPLCKVITEERVLKLLDLALGVFKAQKPMVEVNAPIKVCGDIHGQFPDLLRLFHRGGWPPTANYLFLGDYVDRGRFSIETIVLLLAYKVKFPCNFFLLRGNHECEFVNKTYGFYEECQKRYQSVRMYAAFQDVFNWLPLTGLIATKILCMHGGLSPLMTKEFTLDTLRKIERPTEGKEGLVADLLWADPISGLSGFMNNQRGAGCGFGRDSVLNLCSEFQLDLVCRAHQVVQDGYEFFAGRKLVTIFSAPHYCGQFDNCAAFMSCDEKLQCSFEILRPTTGRLEIREKPLLKDETN,not soluble
9,SSQQRPARKLPSLLLDPTEETVRRRCRDPINVEGLLPSKIRINLEDNVQYVSMRKALKVKRPRFDVSLVYLTRKFMDLVRSAPGGILDLNKVATKLGVRKRRVYDITNVLDGIDLVEKKSKNHIRWIGSDLSNFGAVPQQKKLQEELSDLSAMEDALDELIKDCAQQLFELTDDKENERLAYVTYQDIHSIQAFHEQIVIAVKAPAETRLDVPAPREDSITVHIRSTNGPIDVYLCEVEQGQTSNKRSEGVGTSSSESTHPEGPEEEENPQQSEELLEVSN,soluble
10,VTRKSLLERCMEMEKEGYTGCLLSGGMDSRLKVPLDKFKDEIKAIKEKTKLKINAHVGFVDESDLEWLKYIDVVSLDFVGDNEVIKRVYKIDKKVEDYLRVLDLLTENGIRVAPHITIGLDFGKVHWEFKAIDILVNYPIDVLVLDVLIPTPGTEMANVPKVPVDEAIRVVKYAREKFSGELSIGCMRPFGEWRVKFDREAILAGVDRI,not soluble
11,GPGSMNPLSTRRLGGTVTPGSALSGTCYVSHITRPARTMCWMKLAVFTQFPVVPSLAGTQVQGRQDLLASTAGAGTPEEASLFLQIELFDDECPQLCANFRRLCNGQSSTRQGQVYCFQGLTPSYCGTYFHKIIPSYCVQGGDITMRVKPGGTNSYSSAGRTWLPDEFKKRRHNEIGLVSMANNGPNSNGSQFFITTSAAHERAFNGRHCCIGHVVRGLDAFIALVAPFGNIEGHPSKYAVVVDCGEGEAPTLMSASSSPAAVFQASMAISETGTAGSSPAADSRSVSVEEAPAELDAHYCEQPPQLQLQHRQAADGTGVMAALSPSDAAAAAAPLSISPAQPLKSSLKEKTTAVSEAAKTHAKHVTYQL,not soluble
12,MPEDVKNFYLMTNGFHMTWSVKLDEHIIPLGSMAINSISKLTQLTQSSMYSLPNAPTLADLEDDTHEASDDQPEKPHFDSRSVIFELDSCNGSGKVCLVYKSGKPALAEDTEIWFLDRALYWHFLTDTFTAYYRLLITHLGLPQWQYAFTSYGISPQAKVREEHLPL,not soluble
13,MGSDKIHHHHHHMQIDSSILGALRCFEAAGRLLSFTKAAESLNLTQSAVSQQIRHLEDRLGYVLFVRQPRSLKLTPQGEVLFETTTRALHDIQQTIQRLGMPNAPLQVNCLPSFALQWLMPRLTDFHREQPDVSVRLKAEFQALDRQSMDTEDIDVAVRYDPVRYSRLHADVLLDEYLIPVATPEYLAEHRELAEGTSLDGVVLLHDASPWVGAAEFVEWRTWLEAFHPTWMAHLEGPQFNLSSLAISAALNHQGVAMGRTALVYDEIRSGRLVNVFRQHVRAPARYMLLSRNPDDRRVTIFSAWLKAECARFDAMRMETLSRDR,not soluble
14,MSLSDPVKVFLADNLRRYDAAVLVMSLPGFYRISADLMIEKNHDVPVVVVDDAGRFAVAASAGHAGGSDELAAYIAGIIDGQAVITDGIESGGRVSVEKIARSLLATIANPECIIPVNAAIANGEHVPVIFRSKKRSMLRRLFAESSDEKHGYAIVLADEPGEDANTCYLIPDDISIGIGFNSSADAELISACLERFLEEAGLAWEDIDYVSSIKDLPDVSIIRKGTRFVKFDPADIRDIDPEMLTHVSDKARDVFGVPGVAEPCAIRSLGPGSKIFLPFRSCGRSVTLAAARREGHHHHHH,soluble
15,TRFVPGGPVERMLSQMQSQGDGAASMTSAGGNTALSDEQIAELNAFYGLDKPVMEAYVDWLSRLVTLDLGESTRYYEPVSDMIAERLP,not soluble
16,MESQLPKFLKEPEKYSRLRLLEALQELYLSIEMLKEGYSRNSASKLFLSWKALLSSIVVTNFGKIMETKKKEGKEDEIKWYMRIGYSAPTTGLIGIARDLENLGFKGLVNLTTAMLGIHRYAYNGLDEDISPFHSRSEAIISIKGLIKAEVEIVGSMKFGDEEKELFEKIKRELNNILEHHHHHH,not soluble
17,MCLEDSDAGASNEYDSSPAAWNKEDFPWSGKVKDILQNVFKLEKFRPLQLETINVTMAGKEVFLVMPTGGGKSLCYQLPALCSDGFTLVICPLISLMEDQLMVLKQLGISATMLNASSSKEHVKWVHAEMVNKNSELKLIYVTPEKIAKSKMFMSRLEKAYEARRFTRIAVDEVHCCSQWGHDFRPDYKALGILKRQFPNASLIGLTATATNHVLTDAQKILCIEKCFTFTASFNRPNLYYEVRQKPSNTEDFIEDIVKLINGRYKGQSGIIYCFSQKDSEQVTVSLQNLGIHAGAYHANLEPEDKTTVHRKWSANEIQVVVATVAFGMGIDKPDVRFVIHHSMSKSMENYYQESGRAGRDDMKADCILYYGFGDIFRISSMVVMENVGQQKLYEMVSYCQNISKCRRVLMAQHFDEVWNSEACNKMCDNCCKDSAFERKNITEYCRDLIKILKQAEELNEKLTPLKLIDSWMGKGAAKLRVAGVVAPTLPREDLEKIIAHFLIQQYLKEDYSFTAYATISYLKIGPKANLLNNEAHAITMQVTKSTQNSFRAESSQTCHSEQGDKKMEAENLYFQSHHHHHHDYKDDDDK,soluble
18,MGSDKIHHHHHHVRFIMKTNLFTSLLKKCIYGLSWFFPRQGNKAVFGCYKNLFADNSKYLYLHWHKNKFMHVIWISGDASLVNALRKKGFIAYERWSLEGVYHALTARFYIYNSYIGDVNQWFASGSIKINLWHGSPLKRIEFDIDHGPLAHKYQSNSYWQKTWHSLLYHQEYVRPQLMLSPSPLVDRLFCSAFRLQKKQLLSCGNPRTDFYRRYPDKCQSINSKPDGTSYKKVILYAPSWRDANLSNTETVQSPYEKAFNWGVLSQFLVNSDCLFLLRLHPNERHYAKHFSAYPNVRDISSWEDVYGILHQVDLLLTDYSSLFIDVLPLNIPIVFYLFDHESYIKNSRNCYEYSQCLPQAGLIAYGFEELINILKNNTSKKQTETLHLAYTQLQKLYWQEMNEHSDCFELLERYICRRNLLKSPLNTQIS,not soluble
19,MDEGIRASGGIRACQTGKQKQGRKRPVTGKKRIVVGMSGGVDSSVTAWLLKQQGHEVIGVFMQNWEDDNDDEYCSIKQDALDAMSVADIVGIDMEIVNFAKEYKDRVFSYFLKEYSAGRTPNPDVLCNAEIKFKAFLDYAMELGADCIATGHYARKLEQDGTHYLMKAVDHTKDQSYFLYRLQQHQLAKAIFPLGDIRKTEVRRLAEEAGLPTAAKKDSTGICFIGERPFREFLQRYLPTSPGQMVTPDGKVVGEHIGLMYYTLGQRKGLTIGGSRDGNGEPWFVAGKDIPGNKLIVVQGHDHPLLLKPTLSMADLSWTLPDAPAPGEYSAKNRYRMADAACTLSPIVDGQASLTFQEKQWAVTPGQSAVLYHGDICLGGGIIQLEHHHHHH,not soluble
